From PMC5748978

Biological target: GST-Abp1^SH3 (UniProt Q62418)
Experiment: pull-down

- increase of complex formation with 2 µM Ca2+ over Ca2+-free control: 46%
Substance: endogenous Cobl-like from rat brain extracts (natural protein)
